Experimental data published in patent US20190119318A1.

Experiments:
[1] = biological target: human polyclonal IgG (Gammanorm) (human); test: column DBC, 6 min residence; agarose beads; ligand 9.7 mg/ml
[2] = biological target: human polyclonal IgG (Gammanorm) (human); test: as above; remark: listed apart in the source
[3] = biological target: human polyclonal IgG (Gammanorm) (human); test: column DBC; vs reference Zvar4; 1.0 M NaOH
[4] = biological target: human polyclonal IgG (Gammanorm) (human); test: column DBC; vs reference Zvar4; 0.5 M NaOH
[5] = biological target: human polyclonal IgG (Gammanorm) (human); test: column DBC; ligand 9.7 mg/ml; after 6 x 4 h 0.5 M NaOH
[6] = biological target: human polyclonal IgG (Gammanorm) (human); test: column DBC; ligand 9.7 mg/ml; after 6 x 4 h 1.0 M NaOH
[7] = biological target: human polyclonal IgG (Gammanorm) (human); test: SPR; after 100 CIP cycles 1 M NaOH
[8] = biological target: human polyclonal IgG (Gammanorm) (human); test: SPR; after 200 CIP cycles 0.5 M NaOH
[9] = biological target: human polyclonal IgG (Gammanorm) (human); test: SPR; after 100 CIP cycles 0.5 M NaOH
[10] = biological target: human polyclonal IgG (Gammanorm) (human); test: SPR; vs reference Zvar4; 0.5 M NaOH
[11] = biological target: human polyclonal IgG (Gammanorm) (human); test: SPR; after 300 CIP cycles 0.5 M NaOH
[12] = biological target: human polyclonal IgG (Gammanorm) (human); test: SPR; vs reference Zvar4; 1 M NaOH
[13] = biological target: human polyclonal IgG (Gammanorm) (human); test: column DBC; ligand […]; after 6 x 4 h 0.5 M NaOH
[14] = biological target: human polyclonal IgG (Gammanorm) (human); test: column DBC, 6 min residence; agarose beads; ligand 7.0 mg/ml
[15] = biological target: human polyclonal IgG (Gammanorm) (human); test: column DBC; ligand 7.0 mg/ml; after 6 x 4 h 0.5 M NaOH
[16] = biological target: human polyclonal IgG (Gammanorm) (human); test: column DBC, 6 min residence; agarose beads; ligand […]
[17] = biological target: human polyclonal IgG (Gammanorm) (human); test: SPR; vs reference Zvar1; 0.5 M NaOH cycles
[18] = biological target: human polyclonal IgG (Gammanorm) (human); test: SPR; after 96-100 CIP cycles 0.5 M NaOH
[19] = biological target: IgG1 monoclonal antibody (probe molecule); test: SPR (Biacore), ligand on CM5 chip, IgG1 mAb as probe

An initial IgG capacity Qb10 [1] of 56.3 mg/mL, an initial IgG capacity Qb10 [2] of 62.1 mg/mL and a capacity retention relative to ref. after six 4 h cycles [3] of 1.44 were found for “Zvar(N11K,H18K,S33K,D37E,A42R,N43A,L44I,K50R,L51Y)4 with an additional N-terminal cysteine (designed binder)” in this work. It also gave a capacity retention relative to ref. after six 4 h cycles [4] of 1.53, a remaining IgG capacity Qb10 after six 4 h cycles [5] of 52 mg/mL and a remaining IgG capacity after six 4 h cycles [5] of 92%. For the same substance, the remaining IgG capacity Qb10 after six 4 h cycles [6] was 48.1 mg/mL and the remaining IgG capacity after six 4 h cycles [6] was 77%.
A remaining capacity 100 cycles [7] of 55%, a remaining capacity 200 cycles [8] of 62% and a remaining capacity 100 cycles [9] of 80% were found for “Zvar(Q9A,N11E,N28A,N43A)4 (designed binder)” in this work. It also gave a capacity relative to ref. 100 cycles [10] of 1.19, a capacity relative to ref. 200 cycles [10] of 1.72 and a capacity relative to ref. 300 cycles [10] of 2.62. For the same substance, the remaining capacity 300 cycles [11] was 42% and the capacity relative to ref. 100 cycles [12] was 2.04.
A remaining IgG capacity Qb10 after six 4 h cycles [13] of 46.2 mg/mL, a remaining IgG capacity after six 4 h cycles [13] of 93% and an initial IgG capacity Qb10 [14] of 49.1 mg/mL were found for “Zvar(Q9A,N11E,N28A,N43A)4 with an additional N-terminal cysteine (designed binder)” in this work. For the same substance, the capacity retention relative to ref. after six 4 h cycles ([4]; ligand content 7.0 mg/ml) was 1.5, the remaining IgG capacity Qb10 after six 4 h cycles [15] was 44.1 mg/mL and the remaining IgG capacity after six 4 h cycles [15] was 90%. It also gave an initial IgG capacity Qb10 [16] of 50 mg/mL.
A remaining capacity 200 cycles [8] of 62%, a remaining capacity 100 cycles [9] of 81% and a capacity relative to ref. 100 cycles [10] of 1.21 were found for Zvar(Q9A,N11E,N43A)4 (designed binder) in this work. The capacity relative to ref. 200 cycles [10] was 1.72, the capacity relative to ref. 300 cycles [10] was 2.56 and the remaining capacity 300 cycles [11] was 41%.
A capacity relative to reference [17] of 1.4, a capacity after 96-100 cycles [18] of 66% and a Kd [19] of 1.07 nM were found for “Zvar(Q9A,N11E,Q40V,A42K,N43A,L44I)1 (designed binder)” in this work. It also gave a koff [19] of 0.000437 s⁻¹ and a kon [19] of 410000 M⁻¹ s⁻¹.
